B1: anti-EpCAM-ScFv-rigid linker-human CD19 EC domain fusion protein (without a C-terminal tag) (other)
chain: ELVMTQSPSSLTVTAGEKVTMSCKSSQSLLNSGNQKNYLTWYQQKPGQPPKLLIYWASTRESGVPDRFTGSGSGTDFTLTISSVQAEDLAVYYCQNDYSYPLTFGAGTKLEIKGGGGSGGGGSGGGGSEVQLLEQSGAELVRPGTSVKISCKASGYAFTNYWLGWVKQRPGHGLEWIGDIFPGSGNIHYNEKFKGKATLTADKSSSTAYMQLSSLTFEDSAVYFCARLRNWDEPMDYWGQGTTVTVSSTPSHLSHILPSFGLPTFNPEEPLVVKVEEGDNAVLQCLKGTSDGPTQQLTWSRESPLKPFLKLSLGLPGLGIHMRPLAIWLFIFNVSQQMGGFYLCQPGPPSEKAWQPGWTVNVEGSGELFRWNVSDLGGLGCGLKNRSSEGPSSPSGKLMSPKLYVWAKDRPEIWEGEPPCVPPRDSLNQSLSQDLTMAPGSTLWLSCGVPPDSVSRGPLSWTHVHPKGPKSLLSLELKDDRPARDMWVMETGLLLPRATAQDAGKYYCHRGNLTMSFHLEITAR
notes: also called bispecific protein of NG-1114; bispecific protein of NG-1116
B2: RAET1G3-anti-EpCAM-ScFv fusion protein (without a C-terminal tag) (other)
chain: GLADPHSLCYDITVIPKFRPGPRWCAVQGQVDEKTFLHYDCGSKTVTPVSPLGKKLNVTTAWKAQNPVLREVVDILTEQLLDIQLENYIPKENRMWTTVHPGARKMKEKWENDKDMTMSFHYISMGDCTGWLEDFLMGMDSTLEPSAGGTVGGGGSELVMTQSPSSLTVTAGEKVTMSCKSSQSLLNSGNQKNYLTWYQQKPGQPPKLLIYWASTRESGVPDRFTGSGSGTDFTLTISSVQAEDLAVYYCQNDYSYPLTFGAGTKLEIKGGGGSGGGGSGGGGSEVQLLEQSGAELVRPGTSVKISCKASGYAFTNYWLGWVKQRPGHGLEWIGDIFPGSGNIHYNEKFKGKATLTADKSSSTAYMQLSSLTFEDSAVYFCARLRNWDEPMDYWGQGTTVTVSS
notes: also called bispecific protein of NG-1112
B3: anti-EpCAM-ScFv-human CD19 EC domain fusion protein (without a C-terminal tag) (other)
chain: ELVMTQSPSSLTVTAGEKVTMSCKSSQSLLNSGNQKNYLTWYQQKPGQPPKLLIYWASTRESGVPDRFTGSGSGTDFTLTISSVQAEDLAVYYCQNDYSYPLTFGAGTKLEIKGGGGSGGGGSGGGGSEVQLLEQSGAELVRPGTSVKISCKASGYAFTNYWLGWVKQRPGHGLEWIGDIFPGSGNIHYNEKFKGKATLTADKSSSTAYMQLSSLTFEDSAVYFCARLRNWDEPMDYWGQGTTVTVSSGGGGSPEEPLVVKVEEGDNAVLQCLKGTSDGPTQQLTWSRESPLKPFLKLSLGLPGLGIHMRPLAIWLFIFNVSQQMGGFYLCQPGPPSEKAWQPGWTVNVEGSGELFRWNVSDLGGLGCGLKNRSSEGPSSPSGKLMSPKLYVWAKDRPEIWEGEPPCVPPRDSLNQSLSQDLTMAPGSTLWLSCGVPPDSVSRGPLSWTHVHPKGPKSLLSLELKDDRPARDMWVMETGLLLPRATAQDAGKYYCHRGNLTMSFHLEITARPVLWHWLLRTGGWK
notes: also called bispecific protein of NG-1109
B4: anti-EpCAM-ScFv-flexible linker-human CD19 EC domain fusion protein (without a C-terminal tag) (other)
chain: ELVMTQSPSSLTVTAGEKVTMSCKSSQSLLNSGNQKNYLTWYQQKPGQPPKLLIYWASTRESGVPDRFTGSGSGTDFTLTISSVQAEDLAVYYCQNDYSYPLTFGAGTKLEIKGGGGSGGGGSGGGGSEVQLLEQSGAELVRPGTSVKISCKASGYAFTNYWLGWVKQRPGHGLEWIGDIFPGSGNIHYNEKFKGKATLTADKSSSTAYMQLSSLTFEDSAVYFCARLRNWDEPMDYWGQGTTVTVSSGAGGSGGSSGSDGASGSRPEEPLVVKVEEGDNAVLQCLKGTSDGPTQQLTWSRESPLKPFLKLSLGLPGLGIHMRPLAIWLFIFNVSQQMGGFYLCQPGPPSEKAWQPGWTVNVEGSGELFRWNVSDLGGLGCGLKNRSSEGPSSPSGKLMSPKLYVWAKDRPEIWEGEPPCVPPRDSLNQSLSQDLTMAPGSTLWLSCGVPPDSVSRGPLSWTHVHPKGPKSLLSLELKDDRPARDMWVMETGLLLPRATAQDAGKYYCHRGNLTMSFHLEITAR
notes: also called bispecific protein of NG-1113; bispecific protein of NG-1115
B5: human CD19 EC domain-anti-EpCAM-ScFv fusion protein (without a C-terminal tag) (other)
chain: PEEPLVVKVEEGDNAVLQCLKGTSDGPTQQLTWSRESPLKPFLKLSLGLPGLGIHMRPLAIWLFIFNVSQQMGGFYLCQPGPPSEKAWQPGWTVNVEGSGELFRWNVSDLGGLGCGLKNRSSEGPSSPSGKLMSPKLYVWAKDRPEIWEGEPPCVPPRDSLNQSLSQDLTMAPGSTLWLSCGVPPDSVSRGPLSWTHVHPKGPKSLLSLELKDDRPARDMWVMETGLLLPRATAQDAGKYYCHRGNLTMSFHLEITARPVLWHWLLRTGGWKGGGGSELVMTQSPSSLTVTAGEKVTMSCKSSQSLLNSGNQKNYLTWYQQKPGQPPKLLIYWASTRESGVPDRFTGSGSGTDFTLTISSVQAEDLAVYYCQNDYSYPLTFGAGTKLEIKGGGGSGGGGSGGGGSEVQLLEQSGAELVRPGTSVKISCKASGYAFTNYWLGWVKQRPGHGLEWIGDIFPGSGNIHYNEKFKGKATLTADKSSSTAYMQLSSLTFEDSAVYFCARLRNWDEPMDYWGQGTTVTVSS
notes: also called bispecific protein of NG-1110
B6: anti-EpCAM-ScFv-flexible linker-RAET1G3 fusion protein (without a C-terminal tag) (other)
chain: ELVMTQSPSSLTVTAGEKVTMSCKSSQSLLNSGNQKNYLTWYQQKPGQPPKLLIYWASTRESGVPDRFTGSGSGTDFTLTISSVQAEDLAVYYCQNDYSYPLTFGAGTKLEIKGGGGSGGGGSGGGGSEVQLLEQSGAELVRPGTSVKISCKASGYAFTNYWLGWVKQRPGHGLEWIGDIFPGSGNIHYNEKFKGKATLTADKSSSTAYMQLSSLTFEDSAVYFCARLRNWDEPMDYWGQGTTVTVSSGAGGSGGSSGSDGASGSRGLADPHSLCYDITVIPKFRPGPRWCAVQGQVDEKTFLHYDCGSKTVTPVSPLGKKLNVTTAWKAQNPVLREVVDILTEQLLDIQLENYIPKENRMWTTVHPGARKMKEKWENDKDMTMSFHYISMGDCTGWLEDFLMGMDSTLEPSAGGTV
notes: also called bispecific protein of NG-1117
B7: anti-EpCAM-ScFv-RAET1G3 fusion protein (without a C-terminal tag) (other)
chain: ELVMTQSPSSLTVTAGEKVTMSCKSSQSLLNSGNQKNYLTWYQQKPGQPPKLLIYWASTRESGVPDRFTGSGSGTDFTLTISSVQAEDLAVYYCQNDYSYPLTFGAGTKLEIKGGGGSGGGGSGGGGSEVQLLEQSGAELVRPGTSVKISCKASGYAFTNYWLGWVKQRPGHGLEWIGDIFPGSGNIHYNEKFKGKATLTADKSSSTAYMQLSSLTFEDSAVYFCARLRNWDEPMDYWGQGTTVTVSSGGGGSGLADPHSLCYDITVIPKFRPGPRWCAVQGQVDEKTFLHYDCGSKTVTPVSPLGKKLNVTTAWKAQNPVLREVVDILTEQLLDIQLENYIPKENRMWTTVHPGARKMKEKWENDKDMTMSFHYISMGDCTGWLEDFLMGMDSTLEPSAGGTV
notes: also called bispecific protein of NG-1111
B8: anti-EpCAM-ScFv-rigid linker-RAET1G3 fusion protein (without a C-terminal tag) (other)
chain: ELVMTQSPSSLTVTAGEKVTMSCKSSQSLLNSGNQKNYLTWYQQKPGQPPKLLIYWASTRESGVPDRFTGSGSGTDFTLTISSVQAEDLAVYYCQNDYSYPLTFGAGTKLEIKGGGGSGGGGSGGGGSEVQLLEQSGAELVRPGTSVKISCKASGYAFTNYWLGWVKQRPGHGLEWIGDIFPGSGNIHYNEKFKGKATLTADKSSSTAYMQLSSLTFEDSAVYFCARLRNWDEPMDYWGQGTTVTVSSTPSHLSHILPSFGLPTFNGLADPHSLCYDITVIPKFRPGPRWCAVQGQVDEKTFLHYDCGSKTVTPVSPLGKKLNVTTAWKAQNPVLREVVDILTEQLLDIQLENYIPKENRMWTTVHPGARKMKEKWENDKDMTMSFHYISMGDCTGWLEDFLMGMDSTLEPSAGGTV
notes: also called bispecific protein of NG-1118

For the assay, the target named is T1, EpCAM (human, UniProt P16422 24-314).
T1 construct: whole, on cells; also called EpCAM cell surface target antigen on A549 and SKOV3 cells
T1 sequence (looked up): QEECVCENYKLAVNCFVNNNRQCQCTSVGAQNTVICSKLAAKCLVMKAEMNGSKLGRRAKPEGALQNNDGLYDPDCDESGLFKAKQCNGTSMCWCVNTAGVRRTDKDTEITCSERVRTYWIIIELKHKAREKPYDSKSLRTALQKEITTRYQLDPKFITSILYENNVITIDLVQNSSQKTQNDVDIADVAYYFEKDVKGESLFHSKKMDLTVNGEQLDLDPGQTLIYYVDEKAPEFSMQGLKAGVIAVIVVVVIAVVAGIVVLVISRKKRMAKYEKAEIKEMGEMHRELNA
The assay is described as follows: flow cytometry, supernatant of transfected A549 cells on fresh A549 cells. In general terms: Flow cytometry measures light scatter and fluorescence of single cells or particles in a stream.
Protocol: These plasmids were transfected into A549 human lung tumour cells and cells cultured for 72 hours. Cell culture supernatants (SN) containing secreted bispecific proteins were collected and added to fresh untransfected A549 cells in suspension and incubated for 1.5 hours at room temperature. During this time, the bispecific proteins present in the SN can bind to the A549 cells through their anti-EpCAM ScFv or anti-HER2 ScFV portion. […] For designs having CD19 as CAR-T target, the CD19 extracellular domain portion of the protein was detected by flow cytometry using an anti-CD19 antibody.
In the case of B1, the binding result is recorded as “binds”.

Consider B2, for which the binding result is “no binding”.

For the molecule B3, the binding result is listed as “binds”.

Take B4: the binding result is reported as “binds”.

As for B5, the binding result is “no binding”.

On to B6, for which the binding result was “binds”.

Regarding B7, the binding result is on record as “binds”.

On to B8, for which the binding result was “binds”.
